2 molecules from patent US6586197B1, “Methods and materials for identifying novel pesticide agents” (priority 1999, dated 2003) can be followed below.

The test system of series [1] is expressed 120 kDa APN from Sf21 cells. The series is described as follows: Toxin affinity chromatography and anti-APN immunoblot, Sf21 cells. As to conditions: CHAPS-solubilized Sf21 cells, anti-APN immunoblot (FIG. 13). Type of series: binding, Manduca sexta. The procedure: Affinity purification method of M. sexta 120 kDa APN from Sf21 cells or M. sexta midgut BBMV was described in Luo et al (1996). Briefly, Cry1Ac, Cry1Ba and Cry3a toxins (200 μg) were coupled to 400 μl of cyanogen bromide-activated Sepharose 4B in 20 mM Na2CO3, pH 9.6. M sexta BBMV (1 ml, 3.4 mg/ml proteins) or Sf21 cells (10^7 cells) were solubilized with 2% 3-[(3-cholamidopropyl) dimethylammoniol]-1-propane-sulphonate (CHAPS) in buffer A (50 mM Na2CO3, pH 9.6, 200 mM NaCl, 5 mM EGTA, 0.1% CHAPS). Insoluble material was removed by centrifugation at 27,000×g for 30 min at 4° C. CHAPS-solubilized BBMV (1 ml) or Sf21 cells (2 ml) were then added to the toxin-coupled Sepharose beads equilibrated with Buffer A. The mixture was incubated at 4° C. overnight. After washing with 100 ml of Buffer A, the binding protein-toxin complex was dissociated from the beads by heating in SDS-PAGE sample buffer at 100° C. for 5 min. The samples were separated by 8% SDS-PAGE, and then electrophoretically transferred to nitrocellulose membrane (Millipore Corp., Bedford, Mass.) in transfer buffer (Towbin et al., 1979) at 4° C. overnight. The membrane was blocked with 5% non-fat dry milk in PBST at room temperature for 1 h, and then probed with anti-APN antibody (0.5 μg/ml) in PBST containing 0.1% non-fat dry milk for 2 h. […]

Series [2] relates to Sf21 cells transfected with pHSP120. In words: Toxicity assay (Trypan blue cell mortality), Sf21 cells expressing M. sexta 120 kDa APN. The following applies: 2 h. As for the experimental part: (§1) The pHSP120 plasmid DNA was isolated and purified using a Plasmid Maxi Kit (Qiagen, Valencia, Calif.). Sf21 (IPLB-Sf21) cells (Vaughn et al., 1977) were plated at 1.8×10^6 cells per plate (60 mm diameter) prior to transfection with pHSP120 DNA. Plasmid DNA (10 μg) was mixed with 5 μl of Lipofectin reagent (Gibco BRL, Gaithersburg, Md.) and combined with 1 ml of TC-100 medium (Gibco BRL, Gaithersburg, Md.). The mixture was incubated at room temperature for 15 min. Following 3 washes with TC-100 medium, the DNA/Lipofectin mixture was added to the cells, and then the cells were incubated at room temperature for 4 h on a rocker. After removal of DNA/Lipofectin mixture, TC-100 with 10% fetal bovine serum (4 ml) was added to the plates and the cells were incubated at 27° C. overnight. Expression of 120 kDa APN in Sf21 cells was induced by heat-shocking cells at 42° C. for 30 min the following day. After incubation at 27° C. for 24 h, the cells were collected and analyzed using immunofluorescence localization and Western blotting.
Sf21 cells (1.8×10^6) were grown and heat-shocked as described above. […] The freshly prepared toxin solution (1 ml) was added to each Sf21 cell plate and incubated at room temperature for 2 h. Cell mortality was determined by trypan blue staining as described by Thomas and Ellar (1983).
(§2) Thetoxicity of three Cry1toxins to Sf21 cells expressing M sexta 120 APN was determined. A single concentration of Cry1toxins (40 μg/ml) was used and the cell mortality was measured by Trypan blue staining (Thomas and Ellar 1983).

Series [3] deals with Sf21 cells transfected with pHSP-HR5. The series is described as follows: Toxicity assay (Trypan blue cell mortality), control-vector Sf21 cells. As to conditions: 40 μg/ml toxin in insect PBS, 2 h, Trypan blue (0.1%) staining; means of three assays (±standard error); control vector. As for the experimental part: as §1, with “Expression of 120 kDa APN in Sf21 cells was induced by heat-shocking cells at 42° C. for 30 min the following day.” left out
Sf21 cells (1.8×10^6) were grown and heat-shocked as described above. […] Cell mortality was determined by trypan blue staining as described by Thomas and Ellar (1983).
as §2

The test system of series [4] is expressed 120 kDa APN on Sf21 cells transfected with pHSP120. In words: Immunofluorescence binding of rhodamine-labeled toxins to Sf21 cells (confocal microscopy), pHSP120. The arrangement: species or system Manduca sexta. As to conditions: toxin 1 μg/ml, fixed Sf21 cells transfected with pHSP120. As for the experimental part: Growth of B. thuringiensis strains, trypsin activation, and fast-performance liquid chromatography (Pharmacia) purification of Cry1Ac, […] and Cry3a toxins were done as previously described (Garczynski et al 1991; Lu and Adang 1996). […] The purified Cry1Ac and Cry1Ba (200 μg) were labeled with 5-(and-6)-carboxytetramethylrhodamine, succinimidyl ester [5(6)-TAMRA SE] (Molecular Probe, Eugene, Oreg.) according to the manufacturer's instructions. Briefly, 5(6)-TAMRA (5 mg) were dissolved in 0.5 ml of Dimethylformamide (DMF) immediately before starting the labeling. The dye solution (100 μl) was slowly added into 500 μl of toxin sample (200 μg toxins) and incubated for 1 h at room temperature. The reaction was stopped by adding 0.1 ml of 1.5 M hydroxylamine, pH 8.5, and then the mixture was incubated. for 1h at room temperature. […]
Sf21 cells were plated onto a microscope cover glass (18×18 mm) in a tissue culture dish (60×15 mm diameter), and then transfected and heat-shocked as described above. […] Immunostained cells were observed using fluorescence microscopy or fluorescence confocal microscopy (Center for Advanced Ultrastructural Research, University of Georgia).
Since the expressed 120 kDa APN located on Sf21 cell surfaces, we examined the binding of Cry1toxins to Sf21 cells using double immunofluorescence staining. […] And then cells were viewed by fluorescence confocal microscopy.

The target in series [5] is T1, native 120 kDa APN from M sexta BBMV (Manduca sexta, UniProt Q11001).
T1 construct: native 120 kDa APN from M sexta BBMV; from tissue; host or cells: brush border membrane vesicles from midguts of 5th instar M. sexta larvae, CHAPS-solubilised
T1 sequence (Q11001 36-968): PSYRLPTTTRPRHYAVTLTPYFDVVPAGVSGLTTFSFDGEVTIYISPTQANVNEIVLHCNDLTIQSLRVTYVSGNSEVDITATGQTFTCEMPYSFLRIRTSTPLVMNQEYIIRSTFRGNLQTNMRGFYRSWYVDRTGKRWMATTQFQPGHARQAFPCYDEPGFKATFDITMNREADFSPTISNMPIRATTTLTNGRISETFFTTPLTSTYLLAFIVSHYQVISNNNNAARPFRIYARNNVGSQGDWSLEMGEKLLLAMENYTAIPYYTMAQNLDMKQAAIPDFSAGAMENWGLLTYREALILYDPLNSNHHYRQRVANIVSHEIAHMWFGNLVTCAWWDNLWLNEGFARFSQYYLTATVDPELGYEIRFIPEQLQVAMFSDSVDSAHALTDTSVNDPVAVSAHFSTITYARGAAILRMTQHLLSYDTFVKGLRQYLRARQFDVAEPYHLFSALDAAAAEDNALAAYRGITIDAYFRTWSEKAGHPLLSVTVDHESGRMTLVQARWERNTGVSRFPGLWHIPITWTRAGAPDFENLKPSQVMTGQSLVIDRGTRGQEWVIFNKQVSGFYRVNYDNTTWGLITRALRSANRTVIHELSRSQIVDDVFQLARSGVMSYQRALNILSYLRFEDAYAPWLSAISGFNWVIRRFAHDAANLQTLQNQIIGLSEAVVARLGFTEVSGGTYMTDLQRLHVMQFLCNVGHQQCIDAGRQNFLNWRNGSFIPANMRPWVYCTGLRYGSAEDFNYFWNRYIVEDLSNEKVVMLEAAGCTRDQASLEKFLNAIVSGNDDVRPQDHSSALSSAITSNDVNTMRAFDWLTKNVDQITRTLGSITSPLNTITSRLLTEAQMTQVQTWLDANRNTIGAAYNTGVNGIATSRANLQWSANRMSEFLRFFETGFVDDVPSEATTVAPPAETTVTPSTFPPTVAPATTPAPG
The series is described as follows: Toxin affinity chromatography and anti-APN immunoblot, midgut BBMV. Type of series: binding. The following applies: CHAPS-solubilized M sexta BBMV, anti-APN immunoblot (FIG. 13). The procedure:
M. sexta larvae were reared on artificial diet (Southland Products, Inc.; Lake Village, Ark.) at 26° C., 70% relative humidity with a photoperiod of 12:12 (Light:Dark) h. Midguts were dissected from second day 5th instar larvae, and either immediately used to prepare brush border membrane vesicles (BBMV) or stored at −80° C. BBMV were prepared according to that described in Wolfersberger et al. (1987) as modified in Ferre et al. (1991) and stored in 0.3 M mannitol, 5 mM EGTA, 17 mM Tris-Cl, pH 7.5, at −80° C. until needed. The 115 kDa M. sexta APN was purified as described previously (Lu and Adang, 1996).
Affinity purification method of M. sexta 120 kDa APN from Sf21 cells or M. sexta midgut BBMV was described in Luo et al (1996). Briefly, Cry1Ac, Cry1Ba and Cry3a toxins (200 μg) were coupled to 400 μl of cyanogen bromide-activated Sepharose 4B in 20 mM Na2CO3, pH 9.6. M sexta BBMV (1 ml, 3.4 mg/ml proteins) or Sf21 cells (10^7 cells) were solubilized with 2% 3-[(3-cholamidopropyl) dimethylammoniol]-1-propane-sulphonate (CHAPS) in buffer A (50 mM Na2CO3, pH 9.6, 200 mM NaCl, 5 mM EGTA, 0.1% CHAPS). Insoluble material was removed by centrifugation at 27,000×g for 30 min at 4° C. CHAPS-solubilized BBMV (1 ml) or Sf21 cells (2 ml) were then added to the toxin-coupled Sepharose beads equilibrated with Buffer A. The mixture was incubated at 4° C. overnight. […]

Setting [6] is: 40 μg/ml toxin, the sentence does not say which plasmid.

B1: Cry3a: trypsin-activated, purified B. thuringiensis Cry3a toxin (protein)
chain: NPHSQGRIRELFSQAESHFRNSMPSFAISGYEVLFLTTYAQAANTHLFLLKDAQIYGEEWGYEKEDIAEFYKRQLKLTQEYTDHCVKWYNVGLDKLRGSSYESWVNFNRYRREMTLTVLDLIALFPLYDVRLYPKEVKTELTRDVLTDPIVGVNNLRGYGTTFSNIENYIRKPHLFDYLHRIQFHTRFQPGYYGNDSFNYWSGNYVSTRPSIGSNDIITSPFYGNKSSEPVQNLEFNGEKVYRAVANTNLAVWPSAVYSGVTKVEFSQYNDQTDEASTQTYDSKRNVGAVSWDSIDQLPPETTDEPLEKGYSHQLNYVMCFLMQGSRGTIPVLTWTHKSVDFFNMIDSKKITQLPLVKAYKLQSGASVVAGPRFTGGDIIQCTENGSAATIYVTPDVSYSQKYRARIHYASTSQITFTLSLDGAPFNQYYFDKTINKGDTLTYNSFNLASFSTPFELSGNNLQIGVTGLSAGDKVYIDKIEFIPVN
In the case of B1, the “Binding of APN to toxin affinity column” value in series [1] is given as “did not bind”.

B2: Cry1Ba (65 kDa): B. thuringiensis Cry1Ba toxin, 65 kDa form, provided by Dr. Masson (protein)
chain: IEDSLCIAEGNNIDPFVSASTVQTGINIAGRILGVLGVPFAGQLASFYSFLVGELWPRGRDQWEIFLEHVEQLINQQITENARNTALARLQGLGDSFRAYQQSLEDWLENRDDARTRSVLYTQYIALELDFLNAMPLFAIRNQEVPLLMVYAQAANLHLLLLRDASLFGSEFGLTSQEIQRYYERQVERTRDYSDYCVEWYNTGLNSLRGTNAASWVRYNQFRRDLTLGVLDLVALFPSYDTRTYPINTSAQLTREVYTDAIGATGVNMASMNWYNNNAPSFSAIEAAAIRSPHLLDFLEQLTIFSASSRWSNTRHMTYWRGHTIQSRPIGGGLNTSTHGATNTSINPVTLRFASRDVYRTESYAGVLLWGIYLEPIHGVPTVRFNFTNPQNISDRGTANYSQPYESPGLQLKDSETELPPETTERPNYESYSHRLSHIGIILQSRVNVPVYSWTHRSADRTNTIGPNRITQIPMVKASELPQGTTVVRGPGFTGGDILRRTNTGGFGPIRVTVNGPLTQRYRIGFRYASTVDFDFFVSRGGTTVNNFRFLRTMNSGDELKYGNFVRRAFTTPFTFTQIQDIIRTSIQGLSGNGEVYIDKIEIIPVTATFEAEYDLER
On to B2, for which the “Mortality (%) (±SE), Cells transfected with pHSP 120” value in series [2] (40 μg/ml toxin in insect PBS, Trypan blue (0.1%) staining, means of three assays (±standard error)) is recorded as 17.6 (±0.9) %. Also, in series [2] (setting [6]), the “Mortality of Sf21 cells (cells killed)” value is listed as “about 17%” and the “Toxicity to Sf21 cells in words” value is “low toxicity”. Moreover, the “Mortality (%) (±SE), Cells transfected with pHSP-HR5” value in series [3] is listed as 16.5 (±0.1) %. Besides, the “Binding of rhodamine-labeled toxin (immunofluorescence)” value in series [4] is reported as “only bound weakly”. Moreover, in series [1], the “Binding of APN to toxin affinity column” value is listed as “bound weakly”. For the same molecule, the “Binding of APN to toxin affinity column” value in series [5] is reported as “bound weakly”.
